Consider four molecules from PMC4109681 (Molecular cell, 2013).

The labels stand for the following.
B1: ^15N-Ubc7p (from pET3a-GB1-His6-Thrombin-Ubc7p) (enzyme, Saccharomyces cerevisiae, UniProt Q02159 1-165, looked up)
chain: MSKTAQKRLLKELQQLIKDSPPGIVAGPKSENNIFIWDCLIQGPPDTPYADGVFNAKLEFPKDYPLSPPKLTFTPSILHPNIYPNGEVCISILHSPGDDPNMYELAEERWSPVQSVEKILLSVMSMLSEPNIESGANIDACILWRDNRPEFERQVKLSILKSLGF
modifications: 15N-labelled
B2: Ubc7p:U7BR complex (for NMR titration) (complex, Saccharomyces cerevisiae)
chain 1: B1 chain
chain 2: LLDKFHVDLNEDMSNLSFKDLDIEERKRLLVWQARKNLETKLQSDKDLQSLLT
modifications: 15N-labelled
B3: purified Doa10p^1-112 RING fragment (domain or fragment, Saccharomyces cerevisiae, UniProt P40318 1-112, looked up)
chain: MDVDSDVNVSRLRDELHKVANEETDTATFNDDAPSGATCRICRGEATEDNPLFHPCKCRGSIKYMHESCLLEWVASKNIDISKPGADVKCDICHYPIQFKTIYAENMPEKIP

The target of assay [1] is GST-Cue1p^151-203 U7BR^m4 (Saccharomyces cerevisiae) (UniProt P38428). The experiment in a line: pull-down.
Assay [2] concerns the target T1, purified Hrd1p^321-551, containing its RING finger domain (Saccharomyces cerevisiae, UniProt Q08109 321-551).
T1 sequence (looked up): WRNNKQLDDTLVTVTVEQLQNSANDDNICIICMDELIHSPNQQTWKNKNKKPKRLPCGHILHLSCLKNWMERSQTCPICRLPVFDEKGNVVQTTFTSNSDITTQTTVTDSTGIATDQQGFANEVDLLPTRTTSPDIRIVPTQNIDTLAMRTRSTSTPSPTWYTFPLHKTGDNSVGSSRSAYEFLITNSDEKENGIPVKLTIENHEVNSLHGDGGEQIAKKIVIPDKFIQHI
The experiment in a line: NMR titration.

Assay [3] addresses B2. The experiment in a line: NMR titration.
In the assay “^15N-Ubc7p (from …)” the target is B1. The experiment in a line: NMR titration.

In the case of “in vitro transcribed and translated ^35S-labeled Ubc7p (from UniProt Q02159 1-165) (enzyme)”, the loss of binding against wild-type in assay [1] stood at 40%.
For B1, the Kd in assay [2] is 107 µM.
B2 displayed a Kd in assay [2] of 13.4 µM. Compared with the last molecule, the Kd is about 8-fold lower.
Regarding B3, the binding result (in assay [3]; with ^15N-Ubc7p (from …)) was “binds” each time.
